Results as given in the RNAGym collection of RNA variant scans (doi:10.1073/pnas.2313332121).
This sample holds only a part of the variants without activity.

B1: TPR 5TU (parent)
chain: GGAUCUUCUCGAUCUAACAAAAAAGACAAAUCUGCCACAAAGCUUGAGAGCAUCUUCGGAUGCAGAGGCGGCAGCCUUCGGUGGCGCGAUAGCGCCAACGUUCUCAACUAUGACACGCAAAACGCGUGCUCCGUUGAAUGGAGUUUAUCAUG

Variants of: B1
Experiment: polymerase ribozyme fitness, log enrichment relative to wild type (log ratio); higher = more active; in vitro selection for triplet polymerase activity
Procedure, shortened: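 A single round of triplicate in vitro selection, including frozen incubation at −7 °C, was applied to PCR-built, transcribed mutant libraries of each subunit of a heterodimeric triplet polymerase ribozyme. Illumina sequencing of input and output libraries retained genotypes with ≥10 input reads and ≥1 read per output. Fitness is the base-2 logarithm of genotype enrichment divided by wild-type enrichment, from inverse-variance-weighted replicate averages.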

| Variant | polymerase ribozyme fitness (log ratio) |
| --- | --- |
| GGAUCUUCUCGAUCUAACAAAAAAGAAAAAUCUGCCACAAAGCUUGAGAGCAUCUUCGGAUGCAGAGGCGGCAGCCUUCGGUGGUGCGAUAGCGCAAACGUUCUCAACUAUGAUACGCGAAACGCGUGCUCCGUUGAAUCGAGUUUAUCAUG [C27A C85U C96A C114U A119G G140C] | -4.07 |
| GGAUCUUCUCGAUCUAACAAAAAAGAGAGAUCUGCCACAAAGCUUGAGAGCAUCUUCGGAUGCAGAGGCGGCAGCCUUCGGUGGCGCGAUAGCGUCAACGUUCUCAACUAUGACACGCAAAACGCGUGCUCCGUUGAAUGGAGUUUAUCAUG [C27G A29G C95U] | ≤ -4.2 |
| GGAUCUUCUCGAUCUAACAAAAAAGAAAAAUCUGCCACAAAGCUUGAGAGCAUCUUCAGAUGCAGAGGCGGCAGCGUUCGGUGGCGCGAUAGCGCCAAUGGUCUCAACUAUGACACGCAAAACGCGUGCUCCGUUGAAUGGAGUUUAUCAUG [C27A G58A C76G C99U U101G] | ≤ -4.2 |
| GGAUCUUCUCGAUCUAACAAAAAAGAGAAAUCUGCCACAAAGCUUGAGAGCAUCUUCGGAUGCAGAGGCGGCAGCCUUCGGUGGCGCGAUAGCGCCAACGUUCUCAACUAUGACACGCAAAACGCGUGCUCCGUUGAAUGGAGUUUAUCAUG [C27G] | -3.12 |
| GGAUCUUCUCGAUCUAACAAAAAAGAGAAAUCUGCCCCAAAGCAAGAGAGCAUCUUUGGAUGCAGAGACGGCAGCCUUCGGUAGCGCGAUAGCGCCAACGUUCUCAACUAUGACACGCUUAACGCGUGCUCCGUUGAAUGGAGUUUGUCAUG [C27G A37C U44A U45A C57U G68A G83A A119U A120U A147G] | ≤ -4.2 |
| GGAUCUUCUCGAUCUAACAAAAAAGAAAAAUCUGCCACAAAGCUUGAGAGCAUCUACGGUUGCAGAGGCGGCAGCCUUCGGUGGCGCGAUAGCGCCAACGUUCUCAACUAUGACACGCAAACCGCGUGCUCCGUUGAAUGGAGAUUAUCAUG [C27A U56A A60U A122C U144A] | ≤ -4.2 |
| GGAUCUUCUCGAUCUAACAAAAAAGAAAAAUCUGCCACAAAGCUUGAGAGCAUCUUCUGAUGCAGAGGCGGCAGCCUUCGGUGGCGCGAUAGCGUAAACGUUCUCAACUAUGACACGCAAAACUCGUGCUCCGUUGAAUGGAGUUUAUCAUG [C27A G58U C95U C96A G124U] | -4.08 |
| GGAUCUUCUCGAUCUAACAAAAAAGAAAAAUCUGCCACAAAGCUUGAGAGCAUCUUCGGAUGCAGAGGCGGCAGCCUUCGGUGGCGCAAUAGCGCAGACGUUCUCAACUAUGACACGCAAAACGCGUUCUCCGUGGAAUGGAGUAUAUCAUG [C27A G88A C96A A97G G128U U135G U145A] | ≤ -4.2 |
| GGAUCUUCUCGAUCUAACAAAAAAGAAAAAUCUUCCACAAAGCUUGAGAGCAACUUCGGAUGCAGAGGCGCCAGCCUUCGGUGGCGCUAUAGCGCUAACGUUCUCAACUAUGACACGCAAAACGCGUGCUCCGUUGAAUGGAGAUAAUCAUG [C27A G34U U53A G71C G88U C96U U144A U146A] | ≤ -4.2 |
| GGAUCUUCUCGAUCUAACAAAAAAGAAAAAUCCGCCACAAAGCUUGAGAGCAUCUUCGGAUGCAGAGGCGGCAGCCUUCGGUGGCGCCAUAGCGCCAACGUUCUCAACUAUGACACGCAAAACGCGUGCUCCGUUGAAUGCAGUUUAUCAUG [C27A U33C G88C G141C] | ≤ -4.2 |
| GGAUCUUCUCGAUCUAACAAAAAAGAAAAAUCUGCCACAAAGCUUGAGAGCAUCUUCGGAUGCAGAGGCGGCAGCCUUCGGUGGCACGAUAGCACCAACGUGCUCAACUAUGACACGCAAAACGCGUGCUCUUAUGAAUGGAGUUUAUCAUG [C27A G86A G94A U102G C132U G133U U134A] | ≤ -4.2 |
| GGAUCUUCUCGAUCUAACAAAAAAGAGAAAUCUGCCCCAAAGCUUGCGAGCAUCUUCGGAUGCAGAGGCGGCAGCCUUCGGUGGCGGGAUAGCGCCAACGUUCUCAACUAUGACCCGCAAAACGCGUGCUCCGUUGAAUGGAGUUUAUCAUG [C27G A37C A47C C87G A115C] | ≤ -4.2 |
| GGAUCUUCUCGAUCUAACAAAAAAGAAAAAUCUGCCACAAAGCUUUAGAUCAUCUACGGAUGCAGAGGCCGCAGCCUUCGGUGGCGCGAUAGCGCCAACGGUCUCAACUAUGACACGCAAAACGCGUGCUCCGUUGAAUGGAGUUUAUCAUG [C27A G46U G50U U56A G70C U101G] | ≤ -4.2 |
| GGAUCUUCUCGAUCUAACAAAAAAGAAAAAUCUGCCACAAAGCUUGAGAGCAUCUUCGGAAGCAGAGGCGGCAGCCUUCGGUGGCACGAUAGCGCCAACGUUCUCAACUAUGACACGCAAAACGCGUGCUCCGUUGAAUGGAGUUUAUCAUG [C27A U61A G86A] | ≤ -4.2 |
| GGAUCUUCUCGAUCUAACAAAAAAGAGCAAUCUGCCACAAUGCUUGAGAGCAUCUUCGGAUGCAGAGGCGGCAGCCUUCGGUGGCGCGAUGGUGCCAACGUUCUCAACUAUGACACGCAAAACGCGUGCUCCGUUGAAUGGAGUUUAUCAUG [C27G A28C A41U A91G C93U] | ≤ -4.2 |
| GGAUCUUCUCGAUCUAACAAAAAAGAAAAAUCGGCCACGAAGCUUGAGAGCAUCUUCGGCUGCAGAGGCGGCAGCCUUCGGUGGCGCGAUAGUGCCAACGUUCUCAACUAUGACACGCAAAACGCGCGCUCCGUUGAAUAGAGUUUAUCAUG [C27A U33G A39G A60C C93U U127C G140A] | -4.14 |
| GGAUCUUCUCGAUCUAACAAAAAAGAAAAAUCUGCCACAAAGCUAGAGAGCAUCUUCGGAUGCAGAGGCGGCAGCCUUCGGUGGCGUGAUAGCGCCAACGUUCUCAACUAUGACACGCAAAACGCGUGCUCCGUUGACUGGAGUUUAUCAUG [C27A U45A C87U A138C] | ≤ -4.2 |
| GGAUCUUCUCGAUCUAACAAAAAAGAAAAAUCUGCCACAAAGCUUGAGAGCAUCUUCGGAUGCAGAGGCGUCAGCCUUCGGUGGCGCGAUAGCGCCAACGUUCUCAACUAUGACACGCAAAACGCGUGCUCCGUUGAAUGGAGUUUAUCAUG [C27A G71U] | ≤ -4.2 |
| GGAUCUUCUCGAUCUAACAAAAAAGAAAAAUCUGCCACAAAGCUUGAGAGCAUCUUCGGAUGCAGAGGCGGCAGCCUUCGGUGGCGCGAGAGCGCCAACGUUCUCAUCUAUGACACGCAAAACGCGUGCUCCGUUGAAUGGAGUUUAUCAUG [C27A U90G A107U] | ≤ -4.2 |
